From patent EP4806514A2 (Lepu Biopharma Co., Ltd., dated 2025)
Positions count from the first letter of the chain named.

B1: 69E3H11 chimeric mAb (antibody, V domains shown)
VH: QVQLQQPGAELVKPGASVKLSCKASGYTFTTYWMHWVKQRPGQGLEWIGEIDPSDSYANYNQKFKGKATLTVDKSSSTAYMQLSSLTSEDSAVYYCALYYGYGDWGQGTTLTVSS
VL: EIVLTQSPTTMAASPGEKIIITCSVSSSISSIHLHWYQQKPGFSPKLLIYRTSNLASGVPTRFSGSGSGTSYSLTIGTMEAEDVATYYCQQGSNLPLTFGAGTRLELK
notes: Mouse variable regions fused to human IgG1 constant region
B2: 20C3E8 chimeric mAb (antibody, V domains shown)
VH: QVQLQQSGAELARPGASVKLSCKASGYTFTSYGISWVKQRTGQGLEWIGEIYPRSGNTYYNEKFKGKATLTADKSSSTAYMELRSLTSEDSAVYFCSRLDYGTSPFDYWGQGTTLTVSS
VL: NIVMTQSPKSMSMSVGERVTLSCKASENVGTFVSWYQHKPEQSPKLLIYGASNRYTGVPDRFTGSGSATDFTLTISSVQAEDLADYHCGQSYSYPYTFGGGTKLEIK
notes: as for B1
B3: 61C7F12 chimeric mAb (antibody, V domains shown)
VH: EVQLVESGGGLVKPGGSLKLSCAASGFTFSSYAMSWVRQTPEKRLEWVATINIGGSYTYYPDSVKGRFTISRDNAKNTLYLQMSSLRSEDTAMYYCARQEGRYWYFDVWGAGTTVTVSS
VL: QIVLTQSPAIMSASLGERVTMTCTASSSVSSSYLHWYQQKPGSSPKLWIYSTSNLASGVPARFSGSGSGTSYSLTISSMEAEDAATYYCHQFHRSPYTFGGGTKLEIK
notes: as for B1
B4: 103G6G1 chimeric mAb (antibody, V domains shown)
VH: EVKLVESEGGLVQPGSSMKLSCTASGFTFSDFYMAWVRQVPEKGLEWVANINYDSTITYYLDSLKSRFIISRDNAENILYLQMSSLKSEDTATYYCARLLYYYGSLYFDVWGTGTTVTVSS
VL: DIQMTQSPASLSASVGETVTITCRASENIYSYLAWYQQKQGKSPQLLVYDAKTLAEGVPSRFSGSGSGTQFSLKINSLQPEDFGSYYCQHHYGIPITFGAGTNLELK
notes: as for B1
B5: 29H8D3 chimeric mAb (antibody, V domains shown)
VH: QVQLQQSDAELVKPGASVKISCKVSGYTFTDHTIHWMKQRPEQGLEWIGYIYPRDGYTKYNEKFKDKATLTADKSSSTAYIQLNTLTSEDSAVYFCARFYYGYWYFDVWGTGTTVTVSS
VL: DIVMTQAAPSVPVTPGESVSISCRSSKSLLRSNGNTYLYWFLQRPGQSPQVLIYRMSNLASGVPDRFSGSGSGTAFTLRISRVEAEDVGVYYCMQHLEYPFTFGAGTKLELK
notes: as for B1
B6: 67A11B11 chimeric mAb (antibody, V domains shown)
VH: EIQLQQSGPELVKPGASVKVSCKASGYAFTTYNMYWVKQSHGQSLEWIGYIDPYNGVTIYNQKFKGTATLTVDKSSSTAYMHLNSLSSEDSAVYYCTITAATLDAMDYWGQGTSVTVSS
VL: DIVMTQSHKFMSTSVGDRVSITCKASQNVATAVAWYQQKPGQSPKVLIYWTSTRHNGVPDRFTGSGSGTDFTLTISNVQSEDLADYFCQQYNSHPLTFGAGTRLELK
notes: as for B1
B7: 95F2C2F12 chimeric mAb (antibody, V domains shown)
VH: QVQLQQSGAELMKPGASVKLSCKATGYTFTGYWIEWIKQRPGHGLEWIGEILPGSGSTNYNEKFKGKATFTADTSSNTAYMELSSLTTEDSAIYYCARAGYNNWGQGTTLTVSS
VL: DIQMTQSPSSLSASLGERVSLTCRASQDIGRSVNWLQQEPDGTIKRLIYATSSLESGVPKRFSGSRSGSDYFLTISSLESEDFVDYYCLQYASSPLTFGAGTKLELK
notes: as for B1
B8: 29D2D7-z19p1 (antibody, V domains shown)
VH: QVQLVQSGAEVKKPGASVKVSCKASGYTFTDYDMHWVKQAPGQGLEWIGGFDPESAGTVYNLRFKDKATLTADKSTSTAYMELRSLRSEDTAVYYCARKGYYSVSSPFTYWGQGTLVTVSS
VL: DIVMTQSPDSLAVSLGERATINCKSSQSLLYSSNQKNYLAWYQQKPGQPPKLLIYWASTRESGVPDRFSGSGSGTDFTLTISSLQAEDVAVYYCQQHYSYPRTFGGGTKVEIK
notes: PTM-removed variant of 29D2D7-z19 (VL CDR3 cysteine replaced)
B9: 29D2D7-z19p2 (antibody, V domains shown)
VH: B8 VH
VL: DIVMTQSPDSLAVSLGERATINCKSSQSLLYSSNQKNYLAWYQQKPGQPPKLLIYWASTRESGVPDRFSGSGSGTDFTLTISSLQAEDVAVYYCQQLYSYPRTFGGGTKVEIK
notes: PTM-removed variant of 29D2D7-z19; VH is that of 29D2D7-z19
B10: 29H8D3-z12p15 (antibody, V domains shown)
VH: QVQLVQSGAEVKKPGASVKVSCKASGYTFTDHTIHWMRQRPGQGLEWIGYIYPRDGYTKYNEKFKDRATLTADTSTSTAYMELRSLRSDDTAVYYCARFYYGYWYFDVWGQGTTVTVSS
VL: DIVMTQSPLSLPVTPGEPASISCRSSKSLLRSNGNTYLYWFLQKPGQSPQVLIYRMSNLASGVPDRFSGSGSGTDFTLKISRVEAEDVGVYYCNQHLEYPFTFGQGTKLEIK
notes: PTM-removed variant of 29H8D3-z12; VH is that of 29H8D3-z12
B11: 29H8D3-z12p16 (antibody, V domains shown)
VH: B10 VH
VL: B10 VL with N94Q
notes: as for B10
B12: 29H8D3-z12p17 (antibody, V domains shown)
VH: B10 VH
VL: B10 VL with N94G
notes: as for B10
B13: 29H8D3-z12p21 (antibody, V domains shown)
VH: B10 VH
VL: B10 VL with N94I
notes: as for B10

Legend:
[1] = biological target: T1, human CDH17, full length, expressed on cells (HEK293-hCDH17); AsPC-1, HCT-8, AGS, LoVo, KATO III, HT-29 tumor … (human, UniProt Q12864 23-832); assay: flow cytometry, HEK293-hCDH17 cells
T1 construct: also called human CDH17 expressed on tumor cells
T1 sequence: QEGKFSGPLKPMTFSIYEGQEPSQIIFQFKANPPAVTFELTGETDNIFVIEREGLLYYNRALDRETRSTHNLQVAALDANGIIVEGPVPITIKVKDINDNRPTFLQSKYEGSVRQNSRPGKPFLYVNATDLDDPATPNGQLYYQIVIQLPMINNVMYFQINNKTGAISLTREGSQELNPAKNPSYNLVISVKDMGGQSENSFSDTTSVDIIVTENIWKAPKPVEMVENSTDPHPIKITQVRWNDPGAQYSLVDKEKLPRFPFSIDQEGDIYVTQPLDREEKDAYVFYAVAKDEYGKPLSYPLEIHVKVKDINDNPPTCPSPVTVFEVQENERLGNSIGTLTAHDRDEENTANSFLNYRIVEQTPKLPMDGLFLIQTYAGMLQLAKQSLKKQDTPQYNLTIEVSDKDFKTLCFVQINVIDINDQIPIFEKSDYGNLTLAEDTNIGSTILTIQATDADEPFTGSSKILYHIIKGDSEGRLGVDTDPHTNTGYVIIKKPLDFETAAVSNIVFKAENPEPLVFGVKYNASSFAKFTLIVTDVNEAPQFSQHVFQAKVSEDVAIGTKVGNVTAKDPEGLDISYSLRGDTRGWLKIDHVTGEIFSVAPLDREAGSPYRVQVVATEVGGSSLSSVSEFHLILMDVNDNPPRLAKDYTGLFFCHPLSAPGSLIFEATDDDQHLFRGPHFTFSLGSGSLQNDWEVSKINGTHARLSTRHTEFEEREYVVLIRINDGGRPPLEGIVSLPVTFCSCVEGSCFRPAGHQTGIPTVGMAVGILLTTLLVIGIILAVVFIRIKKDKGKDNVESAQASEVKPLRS

[2] = biological target: T2, hCDH17-his (full length extracellular domain of human CDH17, Q23-M787, his tag at the C-terminal) (human, UniProt Q12864 23-787); assay: SPR (Biacore 8K), antibody captured on Protein A chip, hCDH17-his injected
T2 construct: Limits of the construct (UniProt Q12864, Q23-M787, C-terminal his tag); also called human CDH17-his protein; human CDH17 protein
T2 sequence: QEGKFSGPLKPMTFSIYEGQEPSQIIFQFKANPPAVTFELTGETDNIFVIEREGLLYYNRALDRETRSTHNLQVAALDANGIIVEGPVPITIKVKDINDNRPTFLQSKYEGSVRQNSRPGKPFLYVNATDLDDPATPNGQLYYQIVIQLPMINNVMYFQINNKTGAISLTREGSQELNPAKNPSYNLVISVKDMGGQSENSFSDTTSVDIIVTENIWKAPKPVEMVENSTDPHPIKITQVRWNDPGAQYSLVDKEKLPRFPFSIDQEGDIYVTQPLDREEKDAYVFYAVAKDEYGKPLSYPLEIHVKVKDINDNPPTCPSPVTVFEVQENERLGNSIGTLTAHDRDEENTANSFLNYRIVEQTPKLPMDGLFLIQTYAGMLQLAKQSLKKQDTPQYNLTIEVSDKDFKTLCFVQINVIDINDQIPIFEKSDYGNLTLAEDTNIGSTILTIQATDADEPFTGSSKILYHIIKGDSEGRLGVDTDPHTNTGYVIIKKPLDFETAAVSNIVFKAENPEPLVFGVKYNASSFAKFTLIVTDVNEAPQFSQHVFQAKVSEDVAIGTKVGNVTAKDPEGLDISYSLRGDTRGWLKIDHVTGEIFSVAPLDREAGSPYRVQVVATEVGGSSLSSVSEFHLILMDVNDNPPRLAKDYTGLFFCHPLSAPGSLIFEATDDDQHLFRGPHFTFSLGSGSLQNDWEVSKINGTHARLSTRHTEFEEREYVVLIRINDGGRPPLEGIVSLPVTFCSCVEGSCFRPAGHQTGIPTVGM

[3] = biological target: T3, human CDH16 protein (hCDH16-his, Novoprotein, Cat. No. CJ16) (human, UniProt O75309 19-786); assay: ELISA, hCDH16-his coated at 1 ug/mL
T3 construct: Bought; also called human CDH16-his
T3 sequence (looked up): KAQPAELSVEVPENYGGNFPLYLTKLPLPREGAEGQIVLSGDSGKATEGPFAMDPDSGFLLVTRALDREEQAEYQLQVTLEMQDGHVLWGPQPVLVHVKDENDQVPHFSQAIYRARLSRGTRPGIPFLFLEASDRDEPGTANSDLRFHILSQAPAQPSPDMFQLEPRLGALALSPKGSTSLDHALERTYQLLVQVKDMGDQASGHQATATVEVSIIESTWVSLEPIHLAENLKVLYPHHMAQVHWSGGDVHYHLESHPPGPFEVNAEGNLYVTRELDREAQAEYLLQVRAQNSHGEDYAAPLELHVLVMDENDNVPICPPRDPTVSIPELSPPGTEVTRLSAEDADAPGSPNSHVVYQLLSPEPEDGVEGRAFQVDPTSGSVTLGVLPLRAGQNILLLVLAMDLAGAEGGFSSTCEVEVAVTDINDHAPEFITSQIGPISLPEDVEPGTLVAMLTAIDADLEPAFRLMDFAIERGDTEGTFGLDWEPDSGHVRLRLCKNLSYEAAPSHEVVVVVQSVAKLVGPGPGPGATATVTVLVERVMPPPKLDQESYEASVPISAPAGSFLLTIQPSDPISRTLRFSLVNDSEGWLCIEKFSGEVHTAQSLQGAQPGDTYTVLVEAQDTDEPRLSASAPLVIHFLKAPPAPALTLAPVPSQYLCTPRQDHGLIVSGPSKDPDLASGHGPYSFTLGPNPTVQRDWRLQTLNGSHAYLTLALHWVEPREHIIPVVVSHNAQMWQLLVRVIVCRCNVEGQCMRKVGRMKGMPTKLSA

[4] = biological target: T1, human CDH17, full length, expressed on …; assay: flow cytometry, HCT-8 cells
[5] = biological target: T2, hCDH17-his (full length extracellular …); assay: SPR (Biacore 8K), two doses, antibody captured on Protein A chip, hCDH17-his at 25 nM and 100 nM

Row | Binder | binding result [1] | binding result [2] | binding result [3] | binding result [4] | binding result [5]
1 | B1 | binds | binds | no binding (tested: titrated from 100 nM) | – | –
2 | B2 | binds | binds | no binding (tested: titrated from 100 nM) | – | –
3 | B3 | binds | binds | no binding (tested: titrated from 100 nM) | – | –
4 | B4 | binds | binds | no binding (tested: titrated from 100 nM) | – | –
5 | B5 | – | – | no binding (tested: titrated from 100 nM) | – | –
6 | B6 | binds | binds | no binding (tested: titrated from 100 nM) | – | –
7 | B7 | binds | binds | no binding (tested: titrated from 100 nM) | – | –
8 | B8 | – | – | – | binds | –
9 | B9 | – | – | – | binds | –
10 | B10 | – | – | – | – | binds
11 | B11 | – | – | – | – | binds
12 | B12 | – | – | – | – | binds
13 | B13 | – | – | – | – | binds
